Data reported in patent publication US5157106A, “N-terminal deletions of lymphotoxin, their preparation and use” (BASF Aktiengesellschaft, priority 1986, dated 1992).

Key:
MG-63 tumor cells = experiment: Synergistic cytotoxic activity with recombinant interferon-gamma on tumor cells (72 h, crystal violet); conditions: for sensitivity / growth inhibition of MG-63 by the single substance: substance alone; for factor by which the cytotoxic effect induced by interferon-gamma alone is enhanced: 2 ng/ml interferon-gamma with 2 ng/ml lymphotoxin; for enhancement of the cytotoxicity induced by interferon-gamma (synergistic effect): mean of two independent experiments
Method: 2×10^3 cells in the exponential phase of growth were plated out in complete culture medium (RPMI 1640+10% FCS, both from Flow Laboratories, Meckenheim) in each well of a 96-well plate and were incubated overnight at 37° C. and 5% CO2 in an atmosphere saturated with water vapor. Then, maintaining the interferon-gamma (human recombinant) concentrations constant, the lymphotoxin or the lymphotoxin mutants were subjected to serial 5-fold dilution starting from a concentration of 10 ng/ml protein. The final volume was 150 μl in all the culture wells. Pure culture medium or cultivated cells without the addition of IFN-gamma and/or LT or LT mutants were used as controls. The culture plates were incubated for a further 72 h under the conditions indicated above and were then stained using the crystal violet stain as described under
The synergistic action of lymphotoxins with interferon-gamma was determined as follows:
a) the antiproliferative activity of interferon-gamma was determined from the optical densities of the samples by the following formula: [formula]
b) Determination of the cytotoxic activity of the combination of interferon-gamma and lymphotoxin using formula A.
c) Determination of the synergistic effect of lymphotoxins with interferon-gamma: [formula]
The figures given in the Table were determined as explained above under 12a to 12c and represent the means of two independent experiments.

L929 = experiment: In vitro cytotoxic activity towards L929 (crystal violet stain, 48 h); format: cell-based; conditions: L929, 48 h; corrected by comparison with the control TNF standard
Method: 11. IN VITRO CYTOTOXIC ACTIVITY OF HUMAN RECOMBINANT LYMPHOTOXIN (LT) AND DELTA 23, DELTA 24 AND DELTA 25 LT MUTANTS TOWARDS THE TNF- AND LYMPHOTOXIN-SENSITIVE CELL LINES L929 AND WEHI-164
The substance was added the next day in 25 μl of complete culture medium per well. The initial concentration was 10 ng of protein per ml in each case; 2 duplicate titrations were carried out in series. The following controls were also set up on each culture plate: a) only culture medium; b) cells with culture medium but without lymphotoxin; c) a titrated TNF standard of known biological activity. After incubation for a further 48 h under the conditions indicated above, the surviving cells were stained with a solution of crystal violet (15 g of crystal violet, 7 g of NaCl, 646 ml of ethanol, 172.8 ml of 37% formaldehyde made up to 2 1 with H2 O. This entailed the culture medium being drained off and then the cells being stained with 50 μl of the solution at room temperature for 20 min. The culture plates were then washed with water until all the dyestuff which was not cell-bound had been removed. The cell-bound dyestuff was determined by photometry, after addition of 100 μl of measurement solution (50% ethanol, 0.1% acetic acid), at 540 nm using a Titertek Multiscan MCC/340 (Flow Laboratories, Meckenheim). […]

Balb/c mice = experiment: Determination of acute toxicity, intravenous; format: in vivo
Method: Male Balb/c mice from 4 to 6 weeks of age were used to determine the acute toxicity of the substances under investigation. The animals were randomized (5 animals in each group) and, following a one-week acclimatization period, they received various doses of the test substance (0.25-4.0 mg/kg body weight intravenously, injected into one of the lateral caudal veins). The volume administered was 10 ml/kg body weight; the injection was administered over a period of 10 seconds. The substances had been dissolved in physiological saline solution which contained 0.2% BSA (bovine serum albumin) immediately before the intravenous injection. Animals which received intravenous administration of 10 ml of physiological saline solution per kg of body weight, with 0.2% BSA, acted as controls. […] The following signs were noted: diarrhea, diminished locomotion, piloerection, cyanosis and death; in addition, the body temperature and weight of the animals were determined at regular intervals.

[1] = system: primary cell cultures and normal cell lines; conditions: cited from earlier work
[2] = in vivo studies; cited from earlier work

B1: interferon-gamma: human recombinant interferon-gamma (protein, UniProt P01579 24-161, looked up)
Interferon gamma: QDPYVKEAENLKKYFNAGHSDVADNGTLFLGILKNWKEESDRKIMQSQIVSFYFKLFKNFKDDQSIQKSVETIKEDMNVKFFNSNKKKRDDFEKLTNYSVTDLNVQRKAIHELIQVMAELSPAAKTGKRKRSQMLFRG
sensitivity / growth inhibition of MG-63 by the single substance (MG-63 tumor cells): growth is inhibited dosedependently

B2: LT: lymphotoxin comparison substance, cloned and expressed in E. coli; product was a mixture of lymphotoxin derivatives (protein, UniProt P01374 35-205, looked up)
Lymphotoxin-alpha: LPGVGLTPSAAQTARQHPKMHLAHSTLKPAAHLIGDPSKQNSLLWRANTDRAFLQDGFSLSNNSLLVPTSGIYFVYSQVVFSGKAYSPKATSSPLYLAHEVQLFSSQYPFHVPLLSSQKMVYPGLQEPWLHSMYHGAAFQLTQGDQLSTHTDGIPHLVLSPSTVFFGAFAL
Activity (one unit = amount which induces 50% lysis of the given number of cells) (L929): 6.1 × 10^7 U/mg protein
factor by which the cytotoxic effect induced by interferon-gamma alone is enhanced (MG-63 tumor cells; first measurement): 1.57
factor by which the cytotoxic effect induced by interferon-gamma alone is enhanced (MG-63 tumor cells; second measurement): 1.41
enhancement of the cytotoxicity induced by interferon-gamma (synergistic effect) (MG-63 tumor cells; IFN-gamma 0.4 ng/ml, lymphotoxin 0.016 ng/ml): 1.42
enhancement of the cytotoxicity induced by interferon-gamma (synergistic effect) (MG-63 tumor cells; IFN-gamma 0.4 ng/ml, lymphotoxin 0.08 ng/ml): 1.87
enhancement of the cytotoxicity induced by interferon-gamma (synergistic effect) (MG-63 tumor cells; IFN-gamma 0.4 ng/ml, lymphotoxin 0.4 ng/ml): 1.75
enhancement of the cytotoxicity induced by interferon-gamma (synergistic effect) (MG-63 tumor cells; IFN-gamma 0.4 ng/ml, lymphotoxin 2 ng/ml): 1.89
enhancement of the cytotoxicity induced by interferon-gamma (synergistic effect) (MG-63 tumor cells; IFN-gamma 0.4 ng/ml, lymphotoxin 10 ng/ml): 2.16
enhancement of the cytotoxicity induced by interferon-gamma (synergistic effect) (MG-63 tumor cells; IFN-gamma 2.0 ng/ml, lymphotoxin 0.016 ng/ml): 1.15
enhancement of the cytotoxicity induced by interferon-gamma (synergistic effect) (MG-63 tumor cells; IFN-gamma 2.0 ng/ml, lymphotoxin 0.08 ng/ml): 1.27
enhancement of the cytotoxicity induced by interferon-gamma (synergistic effect) (MG-63 tumor cells; IFN-gamma 2.0 ng/ml, lymphotoxin 0.4 ng/ml): 1.40
enhancement of the cytotoxicity induced by interferon-gamma (synergistic effect) (MG-63 tumor cells; IFN-gamma 2.0 ng/ml, lymphotoxin 2 ng/ml): 1.49
enhancement of the cytotoxicity induced by interferon-gamma (synergistic effect) (MG-63 tumor cells; IFN-gamma 2.0 ng/ml, lymphotoxin 10 ng/ml): 1.61
sensitivity / growth inhibition of MG-63 by the single substance (MG-63 tumor cells): not sensitive to lymphotoxin alone
time at which signs were detectable (as early as) (Balb/c mice; after the injection, especially at higher doses): 2 h
severity of observed signs compared between substances (Balb/c mice; intravenous): most pronounced
signs observed after injection (Balb/c mice; intravenous, 0.25-4.0 mg/kg): dose- and time-dependent reduction in body temperature and weight and in locomotion, and induced piloerection and diarrhea
reversibility of signs (Balb/c mice; surviving animals, within the 7-day observation period): completely reversible in the surviving animals
cytotoxic activity [1]: less or nonexistent
antitumor effect [2]: effective antitumor agent
